Assay: yeast display, Sf9 membrane polyspecificity reagent, FACS + sequencing; frameworks hold sequencing errors
Method in brief: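 A nanobody's polyreactivity label depends on the gate it was sorted from. Yeast display cells were stained with 10% biotinylated, detergent-solubilized Sf9 membrane reagent for 1 hour at 4 °C, enriched on streptavidin microbeads and sorted by FACS. The low and high (top ~1%) gates were set on anti-HA fluorescence for expression and streptavidin fluorescence for reagent binding.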

Sequence	polyreactivity (PSR sort gate)
QVQLVESGGGLVQAGVSLRLSCAASGNIFRYYVMGWYRQAPGKEREFVAAITSSGGSTYYADSVKGRFTISRDNAKKSFYLQMNSLKPEDSAVYYCAKDYWDPGWAEYDYWGQGTQVTVSS	low polyreactivity
QVQLVESGGGLVQAGVSLRLSCAASGRIFDRNAMGWYRQAPGKERELVARISRTGGSTYYADSVKGRFTISRDNAKNTVYLQMNSLKPEDTAVYYSAASRGGGYDYWGQGTQVTVSS	high polyreactivity
QVQLVESGGGLVQAGVSLRLSCAASGRIFLWYAMGWYRQAPGKERELVAVIRGRGDSTSYADSVKGRFTISRDNAKNTVYLQMNSLKPEDTAVYYCADVGRYDYNDWGQGTQVTVSS	low polyreactivity
QVQLVESGGGLVQAGVSLRLSCAASGRIFRFYAMGWYRQAPGIDRELVATISRSGGSTYYADSVKGRFTISRDNAKNNAYLQMNSLKPEDTAVYYCAAQRLHDGDYWVQGTQVTVSS	high polyreactivity
QVQLVESGGGLVQAGVSLRLSCAASGRIFYHNAMGWYRQAPGKEREFVAAISSRGGTTYYADSVKGRFTISRDNAKKTVYLQMNILKPEDTAVYYCAKQYYSASPAKGDYWGQGTQVTVSS	high polyreactivity
QVQLVESGGGLVQAGVSLRLSCAASGRTFFPNAMGWYRQAPGKERELVAAITHSGGTTYYADSVKGRFTISRDNAKNTVYLQMNSLKPEDTAVYYCARGQPRYYNSAYGYWGLGTQVTVSS	high polyreactivity
QVQLVESGGGLVQAGVSLRLSCAASGRTFPRYAMGWYRQAPGKERELVASISYSGGSTYYADSVKVRFTISRDTAKNTVYLQLNSLKPEDTAVYYCARRGRTSFKYYYWGQGTQVTVSS	high polyreactivity
QVQLVESGGGLVQAGVSLRLSCAASGRTFVTYAMGWSREAPGKEKEFVAAISRTGGSTDYADSVKGRFTISRDNAKNTVYLQMNSLKPEETAVYYCATTVIVSPSGYLKSYYWGQGTQVTVSS	high polyreactivity
QVQLVESGGGLVQAGVSLRLSCAASGSIFGGYAMGWYRQAPGKERELVAVISTRGGRTYYADSVKGRFTISRDNAKYTVYLQMNSLKPEDTAVYYCAANRQYTEYNYWGQGTQVTVSS	high polyreactivity
QVQLVESGGGLVQAGVSLRLSCAASGSIFQSYDMGWYRQEPGKEREVVAAISWSGSTTYYADSVKGRFTLSRDNAKNTVYLQMNSLKPEDTAVYYCAVDSNPPDWWAVIYGFWGQGTQVTVSS	low polyreactivity
QVQLVESGGGLVQAGVSLRLSCAASGSIFTQYAMGWSRQAPGKERELVAAISWSGARTYYADSVKGRFTISRDNAKNTVYIQMNSLKPEDTAVYYWAADIIRPVTVDYWGQGTQVTVSS	high polyreactivity
QVQLVESGGGLVQAGVSLRLSCAASGSILRQYAMGWYRQAPGKEWELVAAITGSGGSTSYADSVKGRFTISRDNAKNTVYLQMNSLKPEDTAVYYCNAYLSSRTRSTYGSLRMDYWGPGTQVTVSS	high polyreactivity
QVQLVESGGGLVQAGVSLRLSCAASGSTFARYAMGWYRQAPGKERELVAVITQSGSSTYYADSVKGRFTISRDNAKNTVYLQMNSLKPEDTAVYYCAAVGIDYTRYGRYWYSYDYWGQGTQVTVSS	high polyreactivity
QVQLVESGGGLVQAGVSLRLSCAASGSTFDTYAMGWYRQAPGKERELVAAISGSGVRTYYADSVKGRFTISRDNAKYTVYLQMNSLKPEDTAVYYCATTGYARRFDYWGQGSQVTVSS	high polyreactivity
QVQLVESGGGLVQAGVSLRLSCAASGSTFGENDMGWYRQAPGKERELVAAITWSGGSTYYADSVKGRFTISRDNAKNTVYLQMNSLNPEVTAVYYCNAEGVGRYSPVSHTFDYWGQGTQVTVSS	low polyreactivity
QVQLVESGGGLVQAGVSLRLSCAASGSTFTYNAMGWYRQAPGKERELVAAISYGGGRTYYADSVKGRFTISRDNAKNTVYLLMNSLKPEDTAVYYCNRYRYSYVEFDYWGQGTQVTVSS	high polyreactivity
QVQLVESGGGLVQAGVSLRLSCAASGTFFIYAMGWYRQAPGKERELVAAITSGDITYYADSVKGRFTISRDNAKNTVYFEMNRLKPEDTAVYYCAAESYAWWDKQFLYRYDYWGQGTQVTVSS	low polyreactivity
QVQLVESGGGLVQAGVSLRLSCADSGFTFDGYAMGWYRQAPGKERELVAAISDSGDSTYYADSVKGRFTISRDNAKNTVYLHMNSLKPEDTAVYYCAAGLGYYWSDYFAYDYWGQGTQVTVSS	low polyreactivity
QVQLVESGGGLVQAGVSLRLTCAASGRIFRRYAMGWYRQAPGKEMEFVAAISYGGGSTYYADSVKGRFTISRDNAKNTVYLQMNSLKPEDTAVYYWNADEVVWGYNYWGQGTQVNVSS	low polyreactivity
QVQLVESGGGLVQAGVSLSLSCAASGITFIIYVMGWYRQAPGKERELVAAISSTGSTYYADSVKGRFTISRDNAKNTVYLQMNSLKPEDTAVYYCAARGRRSSNGFYYWGQGTQVTVSS	high polyreactivity
QVQLVESGGGLVQAGYSLRLSFAASGITFRYYAMGWYRQATGKERELVAGITWSGPSTYYADSVKGRFTISRDNAKNTVYLQMNILKPEYTAVFYCAVDYGLYFTFDYWGQGTQVTVSS	low polyreactivity
QVQLVESGGGLVQALGSLRLSCAASGFIFGYNAMGWYRQAPGQERELVAAISSSGGSTYYADSVKGRFTISRDNAKNTVYLQMNSLKPEDTAVYYGAARPVALRKYDYWGLGTQVTVSS	low polyreactivity

Sequence	polyreactivity (PSR sort gate)
QVQLVESGGGLVQARGSHRISCAASGRTITFNAMGWYRQAPGKQRELVAGIDLSTTSTYYADSVKGRFTISRDNAKNTVYLQMNSLKPEDCAVYYCNAYRNADYDYWGQGTLVTVSS	low polyreactivity
QVQLVESGGGLVQARGSLRLSCAASGAIFVVYTMGWYRQAPGKERELVAAITQNGGSSTYYADSVKGSFTISRDNAKNTFYLQMNSLKPDDTAVYYCNVDSFTTTFDYWGQGTQVTVSS	low polyreactivity
QVQLVESGGGLVQARGSLRLSCAASGFIVSPNVMGWYRQAPGKERELVAVISSTGSTYYADSVKGRFTISRDNAKNTVYLQMNSLKPEDTAVYHCNADYSWYGSSGRPGYDYWGQGTQVTVSS	low polyreactivity
QVQLVESGGGLVQARGSLRLSCAASGFTFQNNAMGWYRQAPGKERELVAAISRSGGSTYYADSVKGRFTISRDNANITVYLQMNSLKPEDTAVYYCAKSSGTLWITKYDYWGQGTQVTVSS	low polyreactivity
QVQLVESGGGLVQARGSLRLSCAASGFTFYFYAMGWYRQATGKETELVAAISRSGSRTYYADSVKGRFTISRDNAKNTVYLQMNSLKPVDTAVYYCARVRPRGLYFVLHYDYWGQGTQVTVSS	high polyreactivity
QVQLVESGGGLVQARGSLRLSCAASGLTFASYAMGWYRQEPGKERELVARISRSGGSTYYADSVKGRFTISRDNAKNTVYFHMNSLKPEDTAVYYCAADYIFRRYPGGGIYDYDYWGQGTQVTVSS	high polyreactivity
QVQLVESGGGLVQARGSLRLSCAASGRIFDRYDMGCYRQAPGKEREFVASITWSDGSTYYADSVKGRFTISRDYAKNTVYLQMNSLKPEDTAVYYCNADYVYYYIPVVYEYDYWGQGTQVTVSS	high polyreactivity
QVQLVESGGGLVQARGSLRLSCAASGRIFNYYAMGWYRQAPGKERELVAAISGSGGRTYYADSVKGRFTISRDNAKNTVYLQMNSLKPEDTAVYYCAADGVDGYDYWGLGTQVTVSS	high polyreactivity
QVQLVESGGGLVQARGSLRLSCAASGRTLYDYAMGWYRPAPGKERELVAAISSSGATTYYADSVKGRFTISRDHAKNTVYLQMNSLKPEDTAVYYCAAESVHQAWSGYYYWGQGTQVTVSS	high polyreactivity
QVQLVESGGGLVQARGSLRLSCAASGSIFDFYAMGWYRQAPGKERELVAAISGSGGSTYYADSVKARFTISRDNAKNNGYLQMISLKPDDTAVYYCSYYYWGQGTQVTVSS	low polyreactivity
QVQLVESGGGLVQARGSLRLSCAASGSIFFPYAMGWYRQAPGKERELVAAIRYSAGSTYYADSVKGRFTISRDNAKNTVYLQMNSLKPEDTAVYYCNAGSSCWVSRIGYDYWGEGTQVTVSS	high polyreactivity
QVQLVESGGGLVQARGSLRLSCAASGSIFIRNAMGWYRQAPGKERELVAAISTIGGRTYYADSVKGRFTISRDNAKNTVYLQMNSLKPEDTAVYYCAAEQGTPSTNWYDYWGQGTQVTVSS	low polyreactivity
QVQLVESGGGLVQARGSLRLSCAASGSIIGGNAMGWYRQAPGKERELVATISWSGGSTYYADSVKGRFTISRDKAKNTVYLQMNSLKPEDTAVYYCAKTPYRRYRYGGYTYRTYEYWGQGTQVTVSS	low polyreactivity
QVQLVESGGGLVQARGSLRLSCAASGSTFGLYAMGWYRQAPGKERELVAAISYSGSSTYYADSVKGRFTISRDNAKNTVYLQMNSLKPEDTAVYYCAARRSEHGYNYWGQGTQVTVSS	high polyreactivity
QVQLVESGGGLVQARGSLRLSCAASGSTFRINAMGWYRQAPGKERELVAAITSGGSTKYADSVKGRFTISRDNAKNTVYLQMYILKPADTAVYYCNKQGYPFRYFAWYPGYNYWGQGTQVTVSS	low polyreactivity
QVQLVESGGGLVQARGSLRLSCAASGSTFYAYVMGWYRQATGKERELVAAISKGGGSTYYADSVKGRFTISRDNAKNTVYLQMNSLKPEDTAVYYSAAYASYSNYRKYNYWGQGTQVTVSS	high polyreactivity
QVQLVESGGGLVQARGSLRLSCAASGSTFYYYAMALSRQAPVKERELFASISDHGSTNYADSVKGRFTISRDNAKNTVFLQMNSMKPEDTAVYYCGAVWCLQFGSAWYQMGYWGQVTQVTVSS	low polyreactivity
QVQLVESGGGLVQARGSLRLSCAASGSTLTRNTMGGYRQAPGKERELVAGITRSGSSTYYADSVKGRFTISRDNAKNTVYLQMNSLKPEDTAVYYCAAPYRYRQNLGYWGQGTQVTVSS	high polyreactivity
QVQLVESGGGLVQARGSLRLSCAASGTIFSSYAMGWYRQAPGKERELVAAIRWTGGSTYYADSVKGRFTISRDNAMNTVFLEMNSLKPEDTAVYFCTAEYWIDWGYDYWGQGTQVTVSS	low polyreactivity
QVQLVESGGGLVQARGSLRLSCAATGLTFYSNAMGWSRQAPGKERELVARISTGGSTYADSVKGRFTISRDNAKNTVYLQMNSLKPEDTAVYYCAKLPPRGIDDEYWGQGTQVTVSS	low polyreactivity
QVQLVESGGGLVQARGSLRLSFAASGGIFYSYAMGRYRQAPGKEREFVAAIRRSGGRTYYADSVKGRFTISRDNAKNTVYLQMNSLKPEDTAVYYCAADGWYSGGHDYWGQGTQVTVSS	high polyreactivity
